Results: paper PMC9491697 (PNAS Nexus, 2022)
Several values for one entry are separate records, joined by “and”; a condition that tells them apart may be missing. Identical values can stand only once.

Experiments:
[1] = biological target: T1, human E-cadherin EC1-5-TwinStrep-8His (Homo sapiens, UniProt P12830); test: BLI; E-cadherin EC1-5-TwinStrep-8His loaded on Ni-NTA sensors; Fabs in a 1:3 dilution series; Octet Red96, 23°C, 1000 rpm; 50 mM Tris pH 8.0, 150 mM NaCl, 3 mM CaCl2, 0.25 mg/mL BSA, 0.005% Tween-20; 1:1 binding global fit; conditions: both partners purified
T1 construct: human E-cadherin extracellular domains EC1-5, residues 155 to 698; also called hEC1-5-TS-8His; hE-EC15-TS-8H; source: Expi293, transfected, purified from supernatant (StrepTactin XT); not shown: Twin-Strep, C-terminal, kept; 8His, C-terminal, kept

[2] = biological target: T2, human E-cadherin ectodomain EC1–5 with Twin-Strep and 8His tags (used for BLI) (Homo sapiens); test: BLI; method taken from the construct description (E-cadherin used for BLI had an additional 8His tag); format and conditions not shown; conditions: both partners purified
T2 construct: the range counts on the precursor; also called E-cadherin used for BLI; source: Expi293, transfected, purified from culture supernatant (StrepTactin XT)
T2 chain: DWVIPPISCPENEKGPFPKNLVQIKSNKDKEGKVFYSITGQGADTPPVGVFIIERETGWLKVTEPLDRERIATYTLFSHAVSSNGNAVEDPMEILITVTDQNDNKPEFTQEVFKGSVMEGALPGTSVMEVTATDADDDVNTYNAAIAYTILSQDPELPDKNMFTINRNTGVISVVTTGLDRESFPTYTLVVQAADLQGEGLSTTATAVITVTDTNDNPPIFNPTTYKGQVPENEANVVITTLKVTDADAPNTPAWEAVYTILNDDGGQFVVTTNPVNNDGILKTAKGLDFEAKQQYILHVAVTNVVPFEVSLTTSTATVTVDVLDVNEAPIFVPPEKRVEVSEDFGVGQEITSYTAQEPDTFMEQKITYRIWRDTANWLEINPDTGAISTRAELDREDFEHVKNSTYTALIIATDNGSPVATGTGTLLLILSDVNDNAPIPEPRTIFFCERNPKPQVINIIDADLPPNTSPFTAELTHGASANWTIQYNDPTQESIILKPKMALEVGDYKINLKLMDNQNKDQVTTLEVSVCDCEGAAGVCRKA

B1: 66E8 Fab (Fab, V domains shown)
VH: EVQLQQSGPELVKPGASVKISCKASGYSFTGYFMNWVKQSHGKSLEWIGRINPYNGDTFYKQRFKGKATLTVDKSSSTVHMDLLSLTSEDSAVYYCGRGNYYFDYWGQGTTLTVSS
VL: DVQITQSPSYLAASPGETITINCRTSKNISKYLAWYQEKPGKTNKLLIYSGYTLQSGIPSRFSGSGSGTDFTLTISSLEPEDFAMYYCQQHNEYPYTFGGGTKLEIK
notes: heavy chain of the 66E8 Fab in PDB 6VEL; light chain of the 66E8 Fab in PDB 6VEL; Fab as used in BLI and analytical SEC; source: ExpiCHO, transfected, purified
[1]
  Kd: 90.1 nM and 96.5 nM and 91.8 nM and 92.8 nM

B2: 19A11 Fab (activating antibody to human E-cadherin) (Fab, V domains shown)
VH: QVQLKESGPGLVAPSQSLSITCTVSGFSLSRYGVHWVRQPPGKGLEWLGMMWGGGNTDYNSALKSRLSISKDNSKSQVFLKMNSLQTDDTAMYYCASSNYVLGYAMDYWGQGTSVTVSS
VL: DIVMTQSPSSLAMSVGQKVTMNCKSSQSLLNSSNQKNYLAWYQQKPGQSPKLLIYFTSTRGSGVPDRFIGSGSGTDFTLTISSVEAEDLADYFCQQHYRTPHTFGGGTKVEIK
notes: The 6His form was used for the crystal complex; Purified on a murine kappa light chain resin; also called 19A11-6His Fab; source: ExpiCHO, transfected, purified (CaptureSelect LC-kappa (mur) and Ni-NTA, or StrepTactin XT); ConA-cleared for crystallography
[2]
  Kd: ~6.5 nM

B3: 66E8 Fab (activating antibody to human E-cadherin) (Fab, V domains shown)
VH: B1 VH
VL: B1 VL
notes: source: ExpiCHO, transfected, purified (CaptureSelect LC-kappa (mur) and Ni-NTA, or StrepTactin XT); kifunensine and Endo Hf for crystallography
[2]
  Kd: ~100 nM
